# Results from publication PMC4591472 (Microbiology (Reading, England), 2015).
# T1: FloT tagged to the T25 catalytic domain of adenylate cyclase (B. subtilis NCIB3610, UniProt O32076 1-509)
# T1 sequence (looked up): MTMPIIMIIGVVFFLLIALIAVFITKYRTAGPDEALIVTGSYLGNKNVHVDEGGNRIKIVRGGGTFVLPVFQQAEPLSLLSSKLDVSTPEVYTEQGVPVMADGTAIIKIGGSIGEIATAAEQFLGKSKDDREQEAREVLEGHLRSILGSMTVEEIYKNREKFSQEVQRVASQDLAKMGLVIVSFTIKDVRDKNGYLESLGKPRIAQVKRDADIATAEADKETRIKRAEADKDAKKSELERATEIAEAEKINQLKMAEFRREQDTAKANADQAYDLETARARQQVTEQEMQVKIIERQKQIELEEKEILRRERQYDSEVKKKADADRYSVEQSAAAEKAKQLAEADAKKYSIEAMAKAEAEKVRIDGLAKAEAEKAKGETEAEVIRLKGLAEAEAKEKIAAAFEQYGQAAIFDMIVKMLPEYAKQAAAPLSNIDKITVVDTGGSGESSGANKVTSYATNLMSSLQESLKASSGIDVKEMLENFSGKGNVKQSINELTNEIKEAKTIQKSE
# B1: KinD, bacterial two-hybrid fusion (enzyme, B. subtilis NCIB3610, UniProt O31671 1-506, looked up)
# chain: MLERCKLKILKGACGRVKLYIILVVIPAIVISFFVYEKEKDTIAAEHKQEASVLLNLHRNKINYLIGETMARMTSLSIAIDRPVDIKKMQSILEKTFDSEPRFSGLYFLNAKGDVTASTTELKTKVNLADRSFFIKAKETKKTVISDSYSSRITGQPIFTICVPVLDSKRNVTDYLVAAIQIDYLKNLINLLSPDVYIEVVNQDGKMIFASGQASHAEDQKPVSGYLDDISWNMKVYPNPVTIEELSKSLVLPLSCIIVLLNILFILVLYYLLKRQTQLERSENEAQKLELIGTLAASTAHEIRNPLTGISGFIQLLQKKYKGEEDQLYFSIIEQEIKRINQIVSEFLVLGKPTAEKWELNSLQDIIGEIMPIIYSEGNLYNVEVELQYLTEQPLLVKCTKDHIKQVILNVAKNGLESMPEGGKLTISLGALDKKAIIKVVDNGEGISQEMLDHIFLPFVTSKEKGTGLGLVVCKRIVLMYGGSIHIESEVRRGTEVTITLPVSAS
# B2: ResE, bacterial two-hybrid fusion (enzyme, B. subtilis NCIB3610, UniProt P35164 1-589, looked up)
# chain: MKFWKSVVGKLWFTILSLVLIVLFILTVLLLEFIENYHVEEAENDLTQLANKVAVILENHEDQALARSITWELADNLTSIAIIQDEKNHWYSPNDKNRLSSITVEQIQHDKDLNKALKDHKKVSKRTGLSDTDTDNERLIVGVPYEKDGKKGMVFLSQSLLAVKDTTKHTTRYIFLAAGIAIVLTTFFAFFLSSRVTYPLRKMREGAQDLAKGKFDTKIPILTQDEIGELATAFNQMGRQLNFHINALNQEKEQLSNILSSMADGVITINIDGTILVTNPPAERFLQAWYYEQNMNIKEGDNLPPEAKELFQNAVSTEKEQMIEMTLQGRSWVLLMSPLYAESHVRGAVAVLRDMTEERRLDKLREDFIANVSHELRTPISMLQGYSEAIVDDIASSEEDRKEIAQIIYDESLRMGRLVNDLLDLARMESGHTGLHYEKINVNEFLEKIIRKFSGVAKEKNIALDHDISLTEEEFMFDEDKMEQVFTNLIDNALRHTSAGGSVSISVHSVKDGLKIDIKDSGSGIPEEDLPFIFERFYKADKARTRGRAGTGLGLAIVKNIVEAHNGSITVHSRIDKGTTFSFYIPTKR
# B3: KinC, bacterial two-hybrid fusion (enzyme, B. subtilis NCIB3610, UniProt P39764 1-428, looked up)
# chain: MRKYQARIISIILAMIFIMFWDYLFYFIGKNPINWPVDIVYTAVTLVSVWMLAYYIDEKQQLVKKMKDNEWKYKQLSEEKNRIMDNLQEIVFQTNAKGEITYLNQAWASITGFSISECMGTMYNDYFIKEKHVADHINTQIQNKASSGMFTAKYVTKNGTIFWGEVHYKLYYDRDDQFTGSLGTMSDITERKEAEDELIEINERLARESQKLSITSELAAGIAHEVRNPLTSVSGFLQIMKTQYPDRKDYFDIIFSEIKRIDLVLSELLLLAKPQAITFKTHQLNEILKQVTTLLDTNAILSNIVIEKNFKETDGCMINGDENQLKQVFINIIKNGIEAMPKGGVVTISTAKTASHAVISVKDEGNGMPQEKLKQIGKPFYSTKEKGTGLGLPICLRILKEHDGELKIESEAGKGSVFQVVLPLKSDS
# B4: KinC-CFP (enzyme, B. subtilis, UniProt P39764 1-428, looked up)
# chain: B3 chain
# B5: KinB, bacterial two-hybrid fusion (enzyme, B. subtilis NCIB3610, UniProt Q08430 1-428, looked up)
# chain: MEILKDYLLHICFILFPILLYQVFWLGKPAILVPKINSGLVTLFACGASVLCIIFPIHEMDYIQYGLQMIPVIICLFYISTASGLTVAASVLCFELLFYEPSAMFVFTLLPFLIIIPILFQKKWPFMSKAKKLLLSLLISCVEIFLFFASSWILSALNILNFQKSGIFVYEAAVSGLFRSSVLLLSIYIIESIAENIALRSQLIHSEKMTIVSELAASVAHEVRNPLTVVRGFVQLLFNDETLQNKSSADYKKLVLSELDRAQGIITNYLDMAKQQLYEKEVFDLSALIKETSSLMVSYANYKSVTVEAETEPDLLIYGDATKLKQAVINLMKNSIEAVPHGKGMIHISAKRNGHTIMINITDNGVGMTDHQMQKLGEPYYSLKTNGTGLGLTVTFSIIEHHHGTISFNSSFQKGTTVTIKLPADLPH
# Tests used:
# [1] = molecular target: T1, FloT tagged to the T25 catalytic domain …; experiment: two-hybrid
# two-hybrid = molecular target: the molecule itself; experiment: two-hybrid
# native gel or EMSA = molecular target: the molecule itself; experiment: native gel or EMSA
binder,measurement,setting,value
B1,β-galactosidase activity,[1],~1100 Miller Units
same,β-galactosidase activity,two-hybrid,~1500 Miller Units
B2,β-galactosidase activity,[1],~1600 Miller Units
B3,β-galactosidase activity,[1],> 3500 Miller Units
same,β-galactosidase activity,two-hybrid,~1500 Miller Units
B4,stoichiometry N,native gel or EMSA,2
B5,β-galactosidase activity,two-hybrid,~5500 Miller Units
